For assay [1], the target named is CD20 (human) (UniProt P11836). The assay is described as follows: Scatchard analysis, radio-iodinated sample on Raji cells; apparent association constant.
Assay [2] concerns the target CD20 (human) (UniProt P11836). The assay is described as follows: cell-based or functional assay.
Assay [3] has as its target CD20 (human) (UniProt P11836). The assay is described as follows: flow cytometry on Daudi cells, PE-anti-Fab.
Assay [4] deals with gp41 of HIV-1IIIB (HIV-1IIIB) (UniProt P03377). The assay is described as follows: cell-based or functional assay.
Assay [5] has as its target gp41 of HIV-1 6794 (HIV-1 6794). The assay is described as follows: cell-based or functional assay.

Some results are limits rather than exact numbers.

Take “Hex-hA20 (hexavalent anti-CD20 antibody, six Fabs with one Fc)”: in the assay with CD20 (human) [1], the Ka was 3.9e+08 M⁻¹. In the assay with CD20 (human) [2], this substance gave an EC50, inhibition of proliferation of Daudi cells (4-d MTS assay) of 150 pM; an EC50, inhibition of proliferation of Raji cells (4-d MTS assay) of 64 pM; an EC50, inhibition of proliferation of Ramos cells (4-d MTS assay) of 150 pM; an EC50, viable cell counting assay, Ramos, 3 days of 170 pM. For the same substance, the inhibition of cell proliferation at 0.5 nmol/L, viable cell counting, Raji and Ramos in the assay with CD20 (human) [2] is > 50%. In the assay with CD20 (human) [3], this substance registered a greater fluorescence intensity than veltuzumab (PE-anti-Fab) of 40 to 50%.

As for “T20 HIV fusion inhibitor (enfuvirtide, FUZEON) (peptide)”, the EC50 estimated, neutralization of HIV-1IIIB in Jurkat T cells, 50TCID50 in assay [4] is 9000 pM. In addition, in assay [5], the EC50 estimated, neutralization of HIV-1 6794 in PBMCs, 50TCID50 was 9000 pM and the EC50 estimated, neutralization of HIV-1 6794 in PBMCs, 100TCID50 is 9000 pM.

On to hLL2-(T20)4, for which, in assay [4], the EC50 estimated, neutralization of HIV-1IIIB in Jurkat T cells, 50TCID50 is < 200 pM and the EC50 estimated, neutralization of HIV-1IIIB in Jurkat T cells, 100TCID50 is 100 pM. Also, in assay [5], the EC50 estimated, neutralization of HIV-1 6794 in PBMCs, 50TCID50 was < 200 pM and the EC50 estimated, neutralization of HIV-1 6794 in PBMCs, 100TCID50 was < 200 pM.

Source of the values: patent publication US20130280250A1.
